Source: article PMC6402988 (Nature structural & molecular biology, 2019)

Legend:
SUDV GP ectodomain = SUDV GP ectodomain (Sudan ebolavirus; strain not named for …, UniProt Q66814); assay: ELISA
rVSV-EBOV GP (wild type) = rVSV-EBOV GP (wild type) (Zaire ebolavirus (EBOV), UniProt Q05320); assay: ELISA

Binder	binding result (SUDV GP ectodomain)	binding result (rVSV-EBOV GP (wild type))
ADI-15946 mutant Y100AA (antibody, V domains shown) VH: EVQLVESGGGLVKPGGSLRLSCAASGFTFSNAWMSWVRQAPGKGLEWVGRIKSKTDGGTIDYAAPVKGRFTISRDDSKNTVYLQMTSLKTEDTAVYYCTTYTEDMRAFDWLLRGGETFDYWGQGTLVTVSS VL: DIRLTQSPSSLSASVGDRVTITCRASHYISTYLNWYQQKPGKAPKLLIYAASNLQSGVPSRFSGSGFGTDFSLTISSLQPEDFATYHCQQSYSTPGRYTFGQGTKVEIK	binds	–
ADI-15946 IgG (antibody, V domains shown) VH: EVQLVESGGGLVKPGGSLRLSCAASGFTFSNAWMSWVRQAPGKGLEWVGRIKSKTDGGTIDYAAPVKGRFTISRDDSKNTVYLQMTSLKTEDTAVYYCTTYTEDMRYFDWLLRGGETFDYWGQGTLVTVSS VL: DIRLTQSPSSLSASVGDRVTITCRASHYISTYLNWYQQKPGKAPKLLIYAASNLQSGVPSRFSGSGFGTDFSLTISSLQPEDFATYHCQQSYSTPGRYTFGQGTKVEIK	binds	binds
46M1 (antibody, V domains shown) VH: EVQLVESGGGLVKPGGSLRLSCAASGFTFSNAWMSWVRQAPGKGLEWVGRIKSKTDGGTIDYAAPVKGRFTISRDDSKNTVYLQMTSLKTEDTAVYYCTTYTEDMAYFDWLLRGGETFDYWGQGTLVTVSS VL: DIRLTQSPSSLSASVGDRVTITCRASHYISTYLNWYQQKPGKAPKLLIYAASNLQSGVPSRFSGSGFGTDFSLTISSLQPEDFATYHCQQSYSTPGRYTFGQGTKVEIK	binds	–
